{"source": "the supplement of paper PMC9112550", "about": "“Optimization of the antimicrobial peptide Bac7 by deep mutational scanning” (BMC Biology, 2022);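 also: peptides expressed intracellularly from a pBAD plasmid library in pooled LB shake-flask culture, induced with 0.3% L-arabinose, DNA abundance read by NGS, three biological replicates, DESeq2 with apeglm shrinkage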"}
{"system": "Escherichia coli TOP10", "test": "shrunken log2 fold change of peptide-encoding DNA abundance (4.5 h post-induction vs induction); higher = less antimicrobial activity (less host growth inhibition)", "conditions": "time post-induction: 4.5 h; library: site-saturation at positions 5, 18, 19, 20"}
{"sequence": "RRIRWRPPRLPRPRPRPSQWPRP", "shrunken log2 fold change": -0.0949}
{"sequence": "RRIRARPPRLPRPRPRPNINPRP", "shrunken log2 fold change": -0.349}
{"sequence": "RRIRRRPPRLPRPRPRPEIFPRP", "shrunken log2 fold change": 0.215}
{"sequence": "RRIRPRPPRLPRPRPRPFGPPRP", "shrunken log2 fold change": -0.083}
{"sequence": "RRIRDRPPRLPRPRPRPHRDPRP", "shrunken log2 fold change": -0.0968}
{"sequence": "RRIRIRPPRLPRPRPRPRYCPRP", "shrunken log2 fold change": -0.157}
{"sequence": "RRIRHRPPRLPRPRPRPYTEPRP", "shrunken log2 fold change": -0.204}
{"sequence": "RRIRNRPPRLPRPRPRPKYMPRP", "shrunken log2 fold change": -0.854}
{"sequence": "RRIRARPPRLPRPRPRPFTVPRP", "shrunken log2 fold change": -0.253}
{"sequence": "RRIRNRPPRLPRPRPRPLGKPRP", "shrunken log2 fold change": -0.299}
{"sequence": "RRIRARPPRLPRPRPRPEMFPRP", "shrunken log2 fold change": 0.522}
{"sequence": "RRIRMRPPRLPRPRPRPHDKPRP", "shrunken log2 fold change": 0.0701}
{"sequence": "RRIRCRPPRLPRPRPRPQAGPRP", "shrunken log2 fold change": 0.109}
{"sequence": "RRIRVRPPRLPRPRPRPRNFPRP", "shrunken log2 fold change": -0.275}
{"sequence": "RRIRCRPPRLPRPRPRPGEIPRP", "shrunken log2 fold change": 0.183}
{"sequence": "RRIRLRPPRLPRPRPRPVNKPRP", "shrunken log2 fold change": -0.14}
{"sequence": "RRIRFRPPRLPRPRPRPNKKPRP", "shrunken log2 fold change": -0.212}
{"sequence": "RRIRGRPPRLPRPRPRPEWGPRP", "shrunken log2 fold change": 0.544}
{"sequence": "RRIRSRPPRLPRPRPRPSGTPRP", "shrunken log2 fold change": -0.494}
{"sequence": "RRIRTRPPRLPRPRPRPTMSPRP", "shrunken log2 fold change": -0.163}
{"sequence": "RRIRRRPPRLPRPRPRPPHCPRP", "shrunken log2 fold change": 1.08}
{"sequence": "RRIRHRPPRLPRPRPRPEAHPRP", "shrunken log2 fold change": -0.00101}
{"sequence": "RRIRRRPPRLPRPRPRPFFPPRP", "shrunken log2 fold change": 0.263}
{"sequence": "RRIRPRPPRLPRPRPRPWVWPRP", "shrunken log2 fold change": 0.267}
{"sequence": "RRIRWRPPRLPRPRPRPNGNPRP", "shrunken log2 fold change": 0.0106}
{"sequence": "RRIRRRPPRLPRPRPRPFPKPRP", "shrunken log2 fold change": 0.0876}
{"sequence": "RRIRARPPRLPRPRPRPGCDPRP", "shrunken log2 fold change": 0.78}
{"sequence": "RRIRGRPPRLPRPRPRPKPAPRP", "shrunken log2 fold change": 1.42}
{"sequence": "RRIRFRPPRLPRPRPRPIRIPRP", "shrunken log2 fold change": -0.223}
{"sequence": "RRIRNRPPRLPRPRPRPSVGPRP", "shrunken log2 fold change": -0.0175}
{"sequence": "RRIRRRPPRLPRPRPRPDEMPRP", "shrunken log2 fold change": 0.753}
{"sequence": "RRIRNRPPRLPRPRPRPMGIPRP", "shrunken log2 fold change": -0.454}
{"sequence": "RRIRQRPPRLPRPRPRPYEVPRP", "shrunken log2 fold change": -0.31}
{"sequence": "RRIRRRPPRLPRPRPRPSITPRP", "shrunken log2 fold change": -0.225}
{"sequence": "RRIRLRPPRLPRPRPRPKNYPRP", "shrunken log2 fold change": -0.458}
{"sequence": "RRIRARPPRLPRPRPRPHSVPRP", "shrunken log2 fold change": 0.0268}
{"sequence": "RRIRMRPPRLPRPRPRPWITPRP", "shrunken log2 fold change": -0.00122}
{"sequence": "RRIRVRPPRLPRPRPRPVDYPRP", "shrunken log2 fold change": -0.034}
{"sequence": "RRIRQRPPRLPRPRPRPAIRPRP", "shrunken log2 fold change": -0.0284}
{"sequence": "RRIRYRPPRLPRPRPRPSGRPRP", "shrunken log2 fold change": -0.261}
{"sequence": "RRIRERPPRLPRPRPRPWCSPRP", "shrunken log2 fold change": -0.177}
{"sequence": "RRIRPRPPRLPRPRPRPFIKPRP", "shrunken log2 fold change": -0.926}
{"sequence": "RRIRKRPPRLPRPRPRPQRHPRP", "shrunken log2 fold change": 1.73}
{"sequence": "RRIRLRPPRLPRPRPRPLLIPRP", "shrunken log2 fold change": -0.514}
{"sequence": "RRIRPRPPRLPRPRPRPTQMPRP", "shrunken log2 fold change": 0.395}
{"sequence": "RRIRTRPPRLPRPRPRPTGWPRP", "shrunken log2 fold change": 0.511}
{"sequence": "RRIRWRPPRLPRPRPRPAKPPRP", "shrunken log2 fold change": 0.0169}
{"sequence": "RRIRVRPPRLPRPRPRPHAMPRP", "shrunken log2 fold change": -0.18}
{"sequence": "RRIRKRPPRLPRPRPRPRLAPRP", "shrunken log2 fold change": 0.772}
{"sequence": "RRIRERPPRLPRPRPRPGQAPRP", "shrunken log2 fold change": -0.00166}
{"sequence": "RRIRWRPPRLPRPRPRPQVAPRP", "shrunken log2 fold change": 0.472}
{"sequence": "RRIRTRPPRLPRPRPRPMKQPRP", "shrunken log2 fold change": -0.0631}
{"sequence": "RRIRDRPPRLPRPRPRPANDPRP", "shrunken log2 fold change": -0.176}
{"sequence": "RRIRARPPRLPRPRPRPMFHPRP", "shrunken log2 fold change": -0.275}
{"sequence": "RRIRRRPPRLPRPRPRPWKTPRP", "shrunken log2 fold change": 0.00424}
{"sequence": "RRIRWRPPRLPRPRPRPCVQPRP", "shrunken log2 fold change": 2.8}
{"sequence": "RRIRARPPRLPRPRPRPIWFPRP", "shrunken log2 fold change": 0.225}
{"sequence": "RRIRERPPRLPRPRPRPIMWPRP", "shrunken log2 fold change": -0.268}
{"sequence": "RRIRPRPPRLPRPRPRPDERPRP", "shrunken log2 fold change": -0.0865}
{"sequence": "RRIRRRPPRLPRPRPRPTCFPRP", "shrunken log2 fold change": 0.469}
{"sequence": "RRIRIRPPRLPRPRPRPLSGPRP", "shrunken log2 fold change": -0.0874}
{"sequence": "RRIRDRPPRLPRPRPRPTQRPRP", "shrunken log2 fold change": 0.746}
{"sequence": "RRIRGRPPRLPRPRPRPRNSPRP", "shrunken log2 fold change": 0.114}
{"sequence": "RRIRRRPPRLPRPRPRPPSWPRP", "shrunken log2 fold change": 0.295}
{"sequence": "RRIRHRPPRLPRPRPRPGMKPRP", "shrunken log2 fold change": -0.113}
{"sequence": "RRIRSRPPRLPRPRPRPQHTPRP", "shrunken log2 fold change": -0.424}
{"sequence": "RRIRNRPPRLPRPRPRPGPMPRP", "shrunken log2 fold change": -0.0257}
{"sequence": "RRIRMRPPRLPRPRPRPFSHPRP", "shrunken log2 fold change": 0.0882}
{"sequence": "RRIRPRPPRLPRPRPRPYSDPRP", "shrunken log2 fold change": -0.713}
{"sequence": "RRIRMRPPRLPRPRPRPCCSPRP", "shrunken log2 fold change": 0.0205}
{"sequence": "RRIRARPPRLPRPRPRPIPGPRP", "shrunken log2 fold change": 0.0653}
{"sequence": "RRIRWRPPRLPRPRPRPTFEPRP", "shrunken log2 fold change": 0.13}
{"sequence": "RRIRYRPPRLPRPRPRPQTTPRP", "shrunken log2 fold change": -0.0405}
{"sequence": "RRIRKRPPRLPRPRPRPFLNPRP", "shrunken log2 fold change": 0.00977}
{"sequence": "RRIRKRPPRLPRPRPRPEGPPRP", "shrunken log2 fold change": 0.447}
